Measurements reported in the RNAGym collection of RNA variant scans (doi:10.1093/molbev/msab373).

B1: Azoarcus group I ribozyme (parent)
chain: GUGCCUUGCGCCGGGAAACCACGCAAGGGAUGGUGUCAAAUUCGGCGAAACCUAAGCGCCCGCCCGGGCGUAUGGCAACGCCGAGCCAAGCUUCGGCGCCUGCGCCGAUGAAGGUGUAGAGACUAGACGGCACCCACCUAAGGCAAACGCUAUGGUGAAGGCAUAGUCCAGGGAGUGGCGAAAGUCACACAAACCGG

Variants of: B1
Test: reverse-splicing fitness (ratio to wild type); higher = more active; in vitro selection; Mg2+ level not given
Method in brief: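 An in vitro group I ribozyme library with randomized positions was T7-transcribed and gel-purified. In triplicate, 10 pmol RNA in EPPS pH 7.5 was reacted with 50 pmoles of a 30-nt RNA substrate for 1 h at 37 °C across several added MgCl2 levels (1–48 mM), then stopped with EDTA. Products were reverse transcribed from a substrate-complementary primer, PCR-amplified and sequenced (HiSeq 4000). Fitness is a variant's read proportion after selection over that before, normalised to wild type.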

Variant	reverse-splicing fitness
A120G C150G C169G U176G	0.00469
A120G C169A U176C	0.189
A120G C169A U176G	0.00677
A120G C169A U176A	0.112
A120U A145C C169U	0.263
A120U A145C C169G	0.231
A120U A145C C169A	0.0147
A120U A145C C150A C169A U176A	0.00216
A120U A145C C150A C169A U176G	0.00203
A120U A145C C150A C169A U176C	0.00175
A120G A145U C150U C169U	0.33
A120G A145U C150U C169A	0.33
A120G A145U C150U C169G	0.487
A120U A145U C150G	0.267
A120U A145U C150A	0.215
A120U A145U C150U	0.785
A120U A145C C150A C169U	0.0192
A120U A145C C150A C169G	0.0132
A120U A145C C150A C169A	0.0021
A120U A145U C150A C169G U176A	0.00797
A120U A145U C150A C169G U176G	0.00216
A120U A145U C150A C169G U176C	0.0122
A120G C150A U176A	0.0445
A120G C150A U176C	0.058

Variant	reverse-splicing fitness
A120G C150A U176G	0.0094
A120G A145U	0.508
A120G A145G C169A U176C	0.185
A120G A145G C169A U176G	0.00693
A120G A145G C169A U176A	0.114
A120G U176A	0.213
A120G U176G	0.0139
A120G U176C	0.222
A120U A145C C150U C169A	0.00515
A120U A145C C150U C169U	0.0928
A120U A145C C150U C169G	0.0691
A120G C150G C169A U176A	0.0128
A120G C150G C169A U176G	0.0055
A120G C150G C169A U176C	0.0257
A120U A145G C150A C169G U176G	0.00259
A120U A145G C150A C169G U176C	0.0214
A120U A145G C150A C169G U176A	0.012
A120G A145U C169A U176C	0.166
A120G A145U C169A U176G	0.00923
A120G A145U C169A U176A	0.113
A120U A145C U176G	0.36
A120U A145C U176C	0.452
A120U A145C U176A	0.634
A120G A145U C150G U176A	0.0351

Variant	reverse-splicing fitness
A120G A145U C150G U176C	0.0502
A120G A145U C150G U176G	0.00612
A120U A145U C150U C169A	0.0103
A120U A145U C150U C169U	0.197
A120U A145U C150U C169G	0.166
A120U A145U C150U C169G U176G	0.00311
A120U A145U C150U C169G U176C	0.0637
A120U A145U C150U C169G U176A	0.0285
A120U A145U C150U C169A U176C	0.00496
A120U A145U C150U C169A U176G	0.00234
A120U A145U C150U C169A U176A	0.00335
A120U A145C C150U C169U U176C	0.0258
A120U A145C C150U C169U U176A	0.0309
A120U A145C C150U C169U U176G	0.00705
A120U A145G C150U	0.841
A120U A145G C150G	0.25
A120U A145G C150A	0.361
A120G A145G C150U C169U U176C	0.175
A120G A145G C150U C169U U176A	0.145
A120G A145G C150U C169U U176G	0.0096
A120U A145U C150A C169A	0.00309
A120U A145U C150A C169G	0.0282
A120U A145U C150A C169U	0.0358
A120U	0.858

Variant	reverse-splicing fitness
A120G C169U U176G	0.0211
A120G C169U U176C	0.204
A120G C169U U176A	0.179
A120U A145G C169G	0.255
A120U A145G C169U	0.286
A120U A145G C169A	0.0154
A120G A145G C150U C169G U176A	0.149
A120G A145G C150U C169G U176G	0.00838
A120G A145G C150U C169G U176C	0.216
A120U A145G C150U C169A U176A	0.00538
A120U A145G C150U C169A U176G	0.00258
A120U A145G C150U C169A U176C	0.00469
A120U A145C C150U U176C	0.222
A120U A145C C150U U176A	0.328
A120U A145C C150U U176G	0.167
A120G A145U C150G C169U U176A	0.0333
A120G A145U C150G C169U U176G	0.00602
A120G A145U C150G C169U U176C	0.0556
A120U A145G C150U U176C	0.532
A120U A145G C150U U176A	0.54
A120U A145G C150U U176G	0.155
A120U A145C C150U C169A U176G	0.00156
A120U A145C C150U C169A U176C	0.00274
A120U A145C C150U C169A U176A	0.00179

Variant	reverse-splicing fitness
A120U A145C C150G C169U U176G	0.00273
A120U A145C C150G C169U U176C	0.00753
A120U A145C C150G C169U U176A	0.00626
A120U A145C C150A C169U U176C	0.00371
A120U A145C C150A C169U U176A	0.00859
A120U A145C C150A C169U U176G	0.00358
A120G A145U C150U C169A U176A	0.08
A120G A145U C150U C169A U176C	0.14
A120G A145U C150U C169A U176G	0.00609
A120G C150G C169A	0.0439
A120G C150G C169U	0.0614
A120G C150G C169G	0.0731
A120U A145U C150A C169U U176C	0.015
A120U A145U C150A C169U U176G	0.00399
A120U A145U C150A C169U U176A	0.0134
A120U A145U C150G C169U U176A	0.00679
A120U A145U C150G C169U U176G	0.00288
A120U A145U C150G C169U U176C	0.0175
A120U A145G U176G	0.342
A120U A145G U176A	0.704
A120U A145G U176C	0.685
A120U A145U C150G U176C	0.148
A120U A145U C150G U176A	0.122
A120U A145U C150G U176G	0.018

Variant	reverse-splicing fitness
A120G A145U C150G C169U	0.0748
A120G A145U C150G C169G	0.0994
A120G A145U C150G C169A	0.0517
A120G A145U C150G	0.07
A120G A145U C150A	0.0603
A120G A145U C150U	0.384
A120U A145G C150G C169A U176G	0.00464
A120U A145G C150G C169A U176C	0.00713
A120U A145G C150G C169A U176A	0.0107
A120U A145G C150G C169G U176A	0.00914
A120U A145G C150G C169G U176C	0.00575
A120U A145G C150G C169G U176G	0.00354
A120G A145G C150G U176C	0.0592
A120G A145G C150G U176G	0.00816
A120U A145U	0.89
A120U A145G	0.837
A120U A145C	0.787
A120G A145G C150U U176G	0.0181
A120G A145G C150U U176C	0.212
A120G A145G C150U U176A	0.151
A120G C169G	0.64
A120G C169A	0.444
A120G C169U	0.418
A120U A145C C150G C169G	0.0341

Variant	reverse-splicing fitness
A120U A145C C150G C169U	0.0478
A120U A145C C150G C169A	0.00349
A120G A145G C150U C169A	0.369
A120G A145G C150U C169G	0.502
A120G A145G C150U C169U	0.37
A120G A145U C150A C169U U176G	0.00749
A120G A145U C150A C169U U176C	0.0534
A120G A145U C150A C169U U176A	0.0594
A120G A145G C150U C169A U176A	0.0867
A120G A145G C150U C169A U176G	0.0072
A120G A145G C150U C169A U176C	0.157
A120G A145G C169A	0.424
A120G A145G C169U	0.441
A120G A145G C169G	0.639
A120G C150G	0.0593
A120G C150U	0.318
A120G C150A	0.0647
A120U A145C C150G C169A U176A	0.00247
A120U A145C C150G C169A U176G	0.00186
A120U A145C C150G C169A U176C	0.00228
A120G A145U C150G C169A U176C	0.0317
A120G A145U C150G C169A U176A	0.0196
A120G A145U C150G C169A U176G	0.00439
